Holding throughout (assay): ELISA on biotinylated peptide captured by streptavidin; A450 normalised to isotype control
The target in assay [1] is mouse TREM2 truncated stalk peptide (aa 149-163) (mouse) (UniProt Q99NH8).
Assay [2] concerns the target T1, human TREM2 truncated stalk peptide (aa 149-163) (human).
T1 sequence (peptide, biotinylated (site not stated)): SFEDAHVEHSISRSL

Assay [3] has as its target T2, human TREM2 full length stalk region peptide (aa 129-172) (human).
T2 sequence (peptide, biotinylated (site not stated)): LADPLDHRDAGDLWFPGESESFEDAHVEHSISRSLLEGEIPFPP

Positions count from the first letter of the chain named.

B1: CL0020107 (antibody, V domains shown)
VH: QVQLQQPGAELVKPGASVKMSCRASGYTFTNYWISWVKQRPGQGLEWIGDIYPHSTSTNYNERFRSKATLTVDKSSTTAYMQLSSLTSEDSAVYYCAREGFGISAWGQGTTLTVSS
VL: QIVLTQSPAIMSASPGEKVTITCSATSSVSYMHWFQQKPGTSPKLWIYSTSNLASGVPARFSGSGSGTSHSLTISRMEAEDAATYYCQQRSSYPLTFGSGTKLELK
B1: in assay [1], the fold over background (A450) was determined as 1.6 fold.

B2: CL0020308 (antibody, V domains shown)
VH: QVQLKQSGPSLVQPSQSLSITCTVSGFSLTTYGIHWVRQSPGKGLEWLGVIWTGGSTAFNAAFMSRLSITKDNSKSQVFFKMNSLQADDTAIYYCAKVGFHSATDYWGQGTSVTVSS
VL: DVLMTQTPLSLPVTLGDQASISCRSSQNLVHSNGNTYLEWYLQKPGQSPKLLIYKVSNRFSGVPDRFSGSGSGTDFTLKISRVEAEDLGLYYCFQGSHVPFTFGSGTKLEIK
As for B2, the values for the fold over background (A450) in assay [1] and in assay [2] were 1.1 fold and 2.5 fold, respectively.

B3: CL0020309 (antibody, V domains shown)
VH: B2 VH with T31S, I34V, H35Q, S56T, A58D, M64K, T90S, V98I, T104V
VL: B2 VL with T14S, L29I, S81N, V99I, K108Q
B3: the fold over background (A450) was 1.3 fold in assay [1] and 2.2 fold in assay [2].

B4: CL0020124 (antibody, V domains shown)
VH: EVQLQQSGPVLVKPGASVKMSCKPSGYTFTDYYMNWVKQSHGKSLEWIGSINPYTGGSSYNQKFRGKATLTVDKSSSTAYMELNSLTSEDSAVYYCARGSYYSNLGFAYWGQGTLVTVSA
VL: DVQLTQSPSYLTASPGETITINCRASKSISKYLAWYQEKPGKTNKLLISSGSTLQSGIPSRFSGSGSGTDFTLTISSLEPEDFAMYYCQQYSEYPFTFGSGTKLEIK
Consider B4, for which the figures for the fold over background (A450) in assay [1] and in assay [3] were 1.7 fold and 2.1 fold, respectively.

B5: CL0020141 (antibody, V domains shown)
VH: EVTLVESGGGLVQPGGSLRLSCATSGFTFTDYYMSWVRQPPGKALEWLGFIRDKANGYTTDYSASVKGRFTISRDNSQNILYLQMNTLRAEDSATYYCSRLLRAQGFAYWGQGTLVTVSA
VL: DIVMSQSPSSLGVSIGEKVIMSCTSGQSLLYSNNQKNYLAWYQQKPGQSPKLLIYWASTRESGVPDRFTGSGSGTDFTLTINSVKAEDLAVYYCQQYYRNPFTFGSGTKLEIK
In the case of B5, the values for the fold over background (A450) in assay [1] and in assay [2] were 1.4 fold and 2.1 fold, respectively.

B6: CL0020188 (antibody, V domains shown)
VH: EVKLLDSGGGLVQAGGSLRLSCAGSGFTFTDFYMSWIRQPPGKAPEWLGVIRNKANGYTAGYNPSVKGRFTISRDNTQNILYLQMNTLRAEDTAIYYCARLTYGFDYWGQGVMVTVSS
VL: DIVMTQGALPNPVPSGESASITCQSSKSLLHSNGKTYLNWYLQRPGQSPQLLIYWMSTRASGVSDRFSGSGSGTDFTLKISSVEAEDVGVYYCQQFLEYPFTFGSGTKLEIK
Consider B6, for which the fold over background (A450) in assay [1] was found to be 0.9 fold; in assay [2], 3 fold.

B7: CL0020096 (antibody, V domains shown)
VH: QIQLVQSGPELRKPGETVKISCKASGYTFTTYGMSWVKQAPGKGLKWMGWINTYSGLPRHSDDFKGRFAFSLETSASTAYLQINNLKNEDTATYFCAREVYYGSRKTAWFAYWGQGTLVTVSA
VL: DLVMSQSPSSLAVSVGERVTMSCKSSQSLLYSNDQKNYLAWYQQIPGQSPKLLIYWASTRESGVPDRFTGSGSGTDFTLTISSVKAEDLAVYFCQQYYSYPPTFGAGTKLELK
For B7, the results for the fold over background (A450) in assay [1] and in assay [2] were 1.3 fold and 2.2 fold, respectively.

The values are drawn from US20220119522A1.
